We go through one molecule from patent US20240043537A1.

The target in one assay is CD3 on T-cells (UniProt P07766). The experiment in a line: cell-based or functional assay.
The target in assay [1] is CD3 (as used for the BIACORE kinetics of Table 11) (UniProt P07766). The experiment in a line: SPR (BIACORE).
Sequence of CD3 (as used for the BIACORE kinetics of Table 11) (P07766 23-126): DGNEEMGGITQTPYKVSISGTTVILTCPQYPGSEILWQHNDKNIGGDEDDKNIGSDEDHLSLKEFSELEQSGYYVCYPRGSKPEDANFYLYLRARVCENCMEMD

Sequence of CD3 on T-cells (P07766 23-207): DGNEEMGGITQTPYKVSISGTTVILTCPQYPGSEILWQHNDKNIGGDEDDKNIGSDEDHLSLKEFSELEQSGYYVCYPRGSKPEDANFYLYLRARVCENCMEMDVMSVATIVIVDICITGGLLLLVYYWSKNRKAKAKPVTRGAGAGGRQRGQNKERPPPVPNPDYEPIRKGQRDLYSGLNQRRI

B1: DART-A-M11 (bispecific antibody)
chain 1: DFVMTQSPDSLAVSLGERVTMSCKSSQSLLNSGNQKNYLTWYQQKPGQPPKLLIYWASTRESGVPDRFSGSGSGTDFTLTISSLQAEDVAVYYCQNDYSYPYTFGQGTKLEIKGGGSGGGGEVQLVESGGGLVQPGGSLRLSCAASGFTFSTYAMNWVRQAPGKGLEWVGRIRSKYNNYATYYADSVKDRFTISRDDSKNSLYLQMNSLKTEDTAVYYCVRHGNFGNSYVSFFAYWGQGTLVTVSSGGCGGGKVAALKEKVAALKEKVAALKEKVAALKE
chain 2: QAVVTQEPSLTVSPGGTVTLTCRSSTGAVTTSNYANWVQQKPGQAPRGLIGGTNKRAPWTPARFSGSLLGGKAALTITGAQAEDEADYYCALWYSNLWVFGGGTKLTVLGGGGSGGGGEVQLVQSGAELKKPGASVKVSCKASGYTFTDYYMKWVRQAPGQGLEWIGDIIPSNGATFYNQKFKGRVTITVDKSTSTAYMELSSLRSEDTAVYYCARSHLLRASWFAYWGQGTLVTVSSGGCGGGEVAALEKEVAALEKEVAALEKEVAALEK
Consider B1, for which, in the assay with CD3 on T-cells, the EC50 of cytolysis at 18 hours (CTL assay, Pan-T-cells and MOLM-13, E:T = 5:1) worked out at 0.223 ng/mL; the EC50 of cytolysis at 42 hours (CTL assay, Pan-T-cells and MOLM-13, E:T = 5:1) worked out at 0.016 ng/mL; the R: ratio of 18 hour EC50 to DART-A-WT (CTL assay, Pan-T-cells and MOLM-13, E:T = 5:1) amounted to 2.8; the R: ratio of 42 hour EC50 to DART-A-WT (CTL assay, Pan-T-cells and MOLM-13, E:T = 5:1) was determined as 5.8. Besides, in the assay with CD3 on T-cells, the max % CytoTox at 18 hours (CTL assay, Pan-T-cells and MOLM-13, E:T = 5:1) turned out to be 48.5%; the max % CytoTox at 42 hours (CTL assay, Pan-T-cells and MOLM-13, E:T = 5:1) worked out at 32.4%. Also, in assay [1], the Kd is 19.2 nM, the R (KD ratio to DART-A-WT) stood at 2.4, the R (ka ratio to DART-A-WT) was 2.8 and the R (kd ratio to DART-A-WT) amounted to 6.5. In addition, in assay [1], the koff turned out to be 0.0267 s⁻¹ and the kon was 1.39e+06 M⁻¹ s⁻¹.

In general, Kd refers to the free concentration of one partner at which half of the binding sites on the other are occupied at equilibrium, for simple one-to-one binding. Higher therefore signals weaker binding. In general, koff refers to the first-order rate constant of dissociation. Low values mean slow dissociation, high ones fast dissociation. One may read the kon as a measure of how fast the partners come together. Read a high kon as faster complex formation.
